Reference: US20250270325A1

Target: target antigen
Assay: antigen binding ELISA, antigen coated on plate

For isotype control (antibody), which no binding up to (highest concentration tested) is on record?
The no binding up to (highest concentration tested) was > 5 µM.
